From publication PMC2760630

System: [H][C@@]12COP(=O)(O)O[C@@]1([H])[C@@H](O)[C@H](n1cnc3c(=O)[nH]c(N)nc31)O2
Assay: purified protein
[1] = catalytic site (Km, reduced affinity), allosteric cGMP binding unchanged

| Substance | Km [1] | Km (catalytic site (Km), also allosteric site) |
| --- | --- | --- |
| PDE5 (human PDE5A1, G659A) (Homo sapiens; G659A) | 71.2 ± 1.2 µM |  |
| PDE5 (human PDE5A1, G659P) (Homo sapiens; G659P) | 131.5 ± 7.4 µM |  |
| PDE5 (human PDE5A1, WT) (Homo sapiens) |  | 2.91 ± 0.8 µM |
